Read-outs that look alike come from different tables or passages of the source.
Experiments:
ETS1 = molecular target: T1, ETS1 (UniProt P14921 1-441); assay: EMSA
T1 sequence: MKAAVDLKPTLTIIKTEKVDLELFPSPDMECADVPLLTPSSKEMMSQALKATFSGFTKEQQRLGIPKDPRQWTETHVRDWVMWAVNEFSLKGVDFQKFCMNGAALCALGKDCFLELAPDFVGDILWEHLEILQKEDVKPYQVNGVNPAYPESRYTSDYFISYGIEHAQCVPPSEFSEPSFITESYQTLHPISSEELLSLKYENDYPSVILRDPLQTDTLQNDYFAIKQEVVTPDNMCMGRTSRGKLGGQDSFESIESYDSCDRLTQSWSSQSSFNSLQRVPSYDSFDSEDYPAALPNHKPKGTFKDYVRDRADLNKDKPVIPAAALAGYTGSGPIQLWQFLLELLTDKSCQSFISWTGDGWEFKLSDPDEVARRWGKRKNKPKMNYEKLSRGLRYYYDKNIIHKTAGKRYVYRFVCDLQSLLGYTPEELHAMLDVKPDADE

ELF1 = ELF1 (UniProt P32519 1-619); assay: EMSA
[1] = molecular target: T2, Δ22 (FLI portion of EWS/FLI);FLI ETS domain (;, UniProt Q01543;Q01543 220-452;270-371, |); assay: EMSA
T2 sequence 1: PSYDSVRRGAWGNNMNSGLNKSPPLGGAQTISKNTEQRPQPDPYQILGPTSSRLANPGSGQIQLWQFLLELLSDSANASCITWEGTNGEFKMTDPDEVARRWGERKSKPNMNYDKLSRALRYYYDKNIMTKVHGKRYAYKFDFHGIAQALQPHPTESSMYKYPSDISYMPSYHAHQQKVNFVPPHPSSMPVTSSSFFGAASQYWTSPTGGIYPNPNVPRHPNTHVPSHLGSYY
T2 sequence 2: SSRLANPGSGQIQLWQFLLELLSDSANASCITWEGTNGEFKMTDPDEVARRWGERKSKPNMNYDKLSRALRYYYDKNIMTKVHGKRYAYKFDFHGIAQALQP

[2] = molecular target: T3, Δ22 (FLI portion of EWS/FLI) (UniProt Q01543 220-452); assay: fluorescence polarization stoichiometry
T3 sequence: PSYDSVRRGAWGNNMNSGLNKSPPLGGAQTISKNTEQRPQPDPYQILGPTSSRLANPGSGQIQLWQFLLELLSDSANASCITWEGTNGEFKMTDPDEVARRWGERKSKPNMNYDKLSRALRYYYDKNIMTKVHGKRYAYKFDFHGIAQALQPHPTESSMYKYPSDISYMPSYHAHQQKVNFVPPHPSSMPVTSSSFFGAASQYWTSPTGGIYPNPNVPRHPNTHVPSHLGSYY

[3] = molecular target: T2, Δ22 (FLI portion of EWS/FLI);FLI ETS …; assay: EMSA; remark: listed apart in the source

Chain of ELF1 (P32519 whole entry, the tested form may be a part): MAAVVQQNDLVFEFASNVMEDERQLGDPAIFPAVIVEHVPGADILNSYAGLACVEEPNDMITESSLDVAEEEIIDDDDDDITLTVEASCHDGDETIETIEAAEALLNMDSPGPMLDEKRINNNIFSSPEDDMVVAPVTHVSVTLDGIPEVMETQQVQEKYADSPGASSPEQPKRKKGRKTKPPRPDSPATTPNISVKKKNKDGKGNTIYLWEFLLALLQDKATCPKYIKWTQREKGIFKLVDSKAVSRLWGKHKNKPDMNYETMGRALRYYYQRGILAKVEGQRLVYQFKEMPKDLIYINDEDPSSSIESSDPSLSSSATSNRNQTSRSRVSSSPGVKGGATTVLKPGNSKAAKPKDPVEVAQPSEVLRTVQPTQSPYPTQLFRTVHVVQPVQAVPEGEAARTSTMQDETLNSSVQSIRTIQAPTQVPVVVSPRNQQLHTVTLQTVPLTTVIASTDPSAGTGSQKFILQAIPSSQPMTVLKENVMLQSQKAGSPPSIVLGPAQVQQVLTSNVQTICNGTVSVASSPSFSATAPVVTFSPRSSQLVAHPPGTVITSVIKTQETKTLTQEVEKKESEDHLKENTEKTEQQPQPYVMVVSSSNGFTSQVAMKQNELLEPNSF

B1: 7 GGAA motifs (dsDNA)
DNA 1: TGCAGGAAGGAAGGAAGGAAGGAAGGAAGGAAAGCT
DNA 2: AGCTTTCCTTCCTTCCTTCCTTCCTTCCTTCCTGCA
- binding result (ETS1): binds
- binding result (ELF1): binds
- binding result [1]: binds
- binding result [2]: binds

B2: 4 GGAA motifs (dsDNA)
DNA 1: TGCAGGAAGGAAGGAAGGAAAGCT
DNA 2: AGCTTTCCTTCCTTCCTTCCTGCA
- binding result [3]: binds

B3: 5 GGAA motifs (dsDNA)
DNA 1: TGCAGGAAGGAAGGAAGGAAGGAAAGCT
DNA 2: AGCTTTCCTTCCTTCCTTCCTTCCTGCA
- binding result [1]: binds
- binding result [2]: binds

B4: 6 GGAA motifs (dsDNA)
DNA 1: TGCAGGAAGGAAGGAAGGAAGGAAGGAAAGCT
DNA 2: AGCTTTCCTTCCTTCCTTCCTTCCTTCCTGCA
- binding result [1]: binds
- binding result [2]: binds

Reference: article PMC2935179
